# Assay results published in the Human Domainome abundance scans (Beltran et al. 2025).
# ± gives the uncertainty stated by the source.
# Test: abundance fitness (aPCA) (normalised: wild type 0, dead -1); higher = more abundant; growth selection in yeast, the domain comes from the species named
# Conditions: Homo sapiens
row,Substance,abundance fitness
1,"NEDD4-like E3 ubiquitin-protein ligase WWP2 V459P, O00308",-0.878 ± 0.037
2,"NEDD4-like E3 ubiquitin-protein ligase WWP2 V459Q, O00308",-0.019 ± 0.069
3,"NEDD4-like E3 ubiquitin-protein ligase WWP2 V459R, O00308",-0.127 ± 0.051
4,"NEDD4-like E3 ubiquitin-protein ligase WWP2 V459S, O00308",-0.097 ± 0.045
5,"NEDD4-like E3 ubiquitin-protein ligase WWP2 V459T, O00308",-0.025 ± 0.059
6,"NEDD4-like E3 ubiquitin-protein ligase WWP2 V459W, O00308",-0.18 ± 0.07
7,"NEDD4-like E3 ubiquitin-protein ligase WWP2 V459Y, O00308",-0.335 ± 0.071
8,"NEDD4-like E3 ubiquitin-protein ligase WWP2 V463A, O00308",-0.136 ± 0.036
9,"NEDD4-like E3 ubiquitin-protein ligase WWP2 V463C, O00308",-0.307 ± 0.086
10,"NEDD4-like E3 ubiquitin-protein ligase WWP2 V463E, O00308",-0.16 ± 0.056
11,"NEDD4-like E3 ubiquitin-protein ligase WWP2 V463F, O00308",-0.288 ± 0.039
12,"NEDD4-like E3 ubiquitin-protein ligase WWP2 V463G, O00308",-0.972 ± 0.039
13,"NEDD4-like E3 ubiquitin-protein ligase WWP2 V463H, O00308",-0.422 ± 0.093
14,"NEDD4-like E3 ubiquitin-protein ligase WWP2 V463I, O00308",-0.165 ± 0.072
15,"NEDD4-like E3 ubiquitin-protein ligase WWP2 V463K, O00308",-0.466 ± 0.062
16,"NEDD4-like E3 ubiquitin-protein ligase WWP2 V463L, O00308",-0.041 ± 0.035
17,"NEDD4-like E3 ubiquitin-protein ligase WWP2 V463N, O00308",-0.386 ± 0.056
18,"NEDD4-like E3 ubiquitin-protein ligase WWP2 V463P, O00308",-1.29 ± 0.47
19,"NEDD4-like E3 ubiquitin-protein ligase WWP2 V463Q, O00308",-0.129 ± 0.08
20,"NEDD4-like E3 ubiquitin-protein ligase WWP2 V463R, O00308",-0.352 ± 0.038
21,"NEDD4-like E3 ubiquitin-protein ligase WWP2 V463T, O00308",-0.209 ± 0.069
22,"NEDD4-like E3 ubiquitin-protein ligase WWP2 V463W, O00308",-0.414 ± 0.068

row,Substance,abundance fitness
1,"NEDD4-like E3 ubiquitin-protein ligase WWP2 V463Y, O00308",-0.26 ± 0.076
2,"NEDD4-like E3 ubiquitin-protein ligase WWP2 W450C, O00308",-0.446 ± 0.051
3,"NEDD4-like E3 ubiquitin-protein ligase WWP2 W450D, O00308",-0.552 ± 0.041
4,"NEDD4-like E3 ubiquitin-protein ligase WWP2 W450E, O00308",-0.492 ± 0.042
5,"NEDD4-like E3 ubiquitin-protein ligase WWP2 W450F, O00308",-0.026 ± 0.075
6,"NEDD4-like E3 ubiquitin-protein ligase WWP2 W450H, O00308",-0.464 ± 0.085
7,"NEDD4-like E3 ubiquitin-protein ligase WWP2 W450I, O00308",-0.197 ± 0.083
8,"NEDD4-like E3 ubiquitin-protein ligase WWP2 W450K, O00308",-0.598 ± 0.084
9,"NEDD4-like E3 ubiquitin-protein ligase WWP2 W450L, O00308",-0.421 ± 0.048
10,"NEDD4-like E3 ubiquitin-protein ligase WWP2 W450M, O00308",-0.4 ± 0.071
11,"NEDD4-like E3 ubiquitin-protein ligase WWP2 W450N, O00308",-0.581 ± 0.099
12,"NEDD4-like E3 ubiquitin-protein ligase WWP2 W450R, O00308",-0.735 ± 0.047
13,"NEDD4-like E3 ubiquitin-protein ligase WWP2 W450S, O00308",-0.676 ± 0.057
14,"NEDD4-like E3 ubiquitin-protein ligase WWP2 W450T, O00308",-0.475 ± 0.075
15,"NEDD4-like E3 ubiquitin-protein ligase WWP2 W450V, O00308",-0.175 ± 0.033
16,"NEDD4-like E3 ubiquitin-protein ligase WWP2 W450Y, O00308",-0.211 ± 0.081
17,"NEDD4-like E3 ubiquitin-protein ligase WWP2 Y454A, O00308",-0.036 ± 0.056
18,"NEDD4-like E3 ubiquitin-protein ligase WWP2 Y454C, O00308",-0.037 ± 0.048
19,"NEDD4-like E3 ubiquitin-protein ligase WWP2 Y454D, O00308",-0.461 ± 0.12
20,"NEDD4-like E3 ubiquitin-protein ligase WWP2 Y454E, O00308",-0.046 ± 0.052
21,"NEDD4-like E3 ubiquitin-protein ligase WWP2 Y454F, O00308",-0.083 ± 0.059
22,"NEDD4-like E3 ubiquitin-protein ligase WWP2 Y454G, O00308",-0.428 ± 0.045

row,Substance,abundance fitness
1,"NEDD4-like E3 ubiquitin-protein ligase WWP2 Y454H, O00308",-0.306 ± 0.066
2,"NEDD4-like E3 ubiquitin-protein ligase WWP2 Y454I, O00308",-0.065 ± 0.062
3,"NEDD4-like E3 ubiquitin-protein ligase WWP2 Y454K, O00308",-0.015 ± 0.067
4,"NEDD4-like E3 ubiquitin-protein ligase WWP2 Y454L, O00308",-0.035 ± 0.031
5,"NEDD4-like E3 ubiquitin-protein ligase WWP2 Y454M, O00308",-0.185 ± 0.063
6,"NEDD4-like E3 ubiquitin-protein ligase WWP2 Y454N, O00308",-0.121 ± 0.077
7,"NEDD4-like E3 ubiquitin-protein ligase WWP2 Y454P, O00308",-0.592 ± 0.068
8,"NEDD4-like E3 ubiquitin-protein ligase WWP2 Y454Q, O00308",0.008 ± 0.071
9,"NEDD4-like E3 ubiquitin-protein ligase WWP2 Y454R, O00308",-0.029 ± 0.033
10,"NEDD4-like E3 ubiquitin-protein ligase WWP2 Y454S, O00308",-0.132 ± 0.043
11,"NEDD4-like E3 ubiquitin-protein ligase WWP2 Y454T, O00308",-0.006 ± 0.057
12,"NEDD4-like E3 ubiquitin-protein ligase WWP2 Y454V, O00308",-0.047 ± 0.048
13,"NEDD4-like E3 ubiquitin-protein ligase WWP2 Y454W, O00308",-0.056 ± 0.035
14,"NEDD4-like E3 ubiquitin-protein ligase WWP2 Y461A, O00308",-0.669 ± 0.072
15,"NEDD4-like E3 ubiquitin-protein ligase WWP2 Y461C, O00308",-0.538 ± 0.061
16,"NEDD4-like E3 ubiquitin-protein ligase WWP2 Y461D, O00308",-1.1 ± 0.15
17,"NEDD4-like E3 ubiquitin-protein ligase WWP2 Y461E, O00308",-0.577 ± 0.071
18,"NEDD4-like E3 ubiquitin-protein ligase WWP2 Y461F, O00308",-0.236 ± 0.075
19,"NEDD4-like E3 ubiquitin-protein ligase WWP2 Y461G, O00308",-0.863 ± 0.045
20,"NEDD4-like E3 ubiquitin-protein ligase WWP2 Y461H, O00308",-0.526 ± 0.077
21,"NEDD4-like E3 ubiquitin-protein ligase WWP2 Y461I, O00308",-0.509 ± 0.086
22,"NEDD4-like E3 ubiquitin-protein ligase WWP2 Y461K, O00308",-0.621 ± 0.072

row,Substance,abundance fitness
1,"NEDD4-like E3 ubiquitin-protein ligase WWP2 Y461L, O00308",-0.375 ± 0.048
2,"NEDD4-like E3 ubiquitin-protein ligase WWP2 Y461M, O00308",-0.424 ± 0.038
3,"NEDD4-like E3 ubiquitin-protein ligase WWP2 Y461N, O00308",-0.752 ± 0.052
4,"NEDD4-like E3 ubiquitin-protein ligase WWP2 Y461P, O00308",-0.824 ± 0.045
5,"NEDD4-like E3 ubiquitin-protein ligase WWP2 Y461Q, O00308",-0.671 ± 0.079
6,"NEDD4-like E3 ubiquitin-protein ligase WWP2 Y461R, O00308",-0.762 ± 0.046
7,"NEDD4-like E3 ubiquitin-protein ligase WWP2 Y461T, O00308",-0.445 ± 0.067
8,"NEDD4-like E3 ubiquitin-protein ligase WWP2 Y461V, O00308",-0.529 ± 0.055
9,"NEDD4-like E3 ubiquitin-protein ligase WWP2 Y461W, O00308",-0.531 ± 0.053
10,"NEDD4-like E3 ubiquitin-protein ligase WWP2 Y491A, O00308",-0.015 ± 0.059
11,"NEDD4-like E3 ubiquitin-protein ligase WWP2 Y491C, O00308",-0.011 ± 0.049
12,"NEDD4-like E3 ubiquitin-protein ligase WWP2 Y491D, O00308",0.104 ± 0.074
13,"NEDD4-like E3 ubiquitin-protein ligase WWP2 Y491E, O00308",0.033 ± 0.064
14,"NEDD4-like E3 ubiquitin-protein ligase WWP2 Y491F, O00308",0.035 ± 0.07
15,"NEDD4-like E3 ubiquitin-protein ligase WWP2 Y491G, O00308",0.043 ± 0.04
16,"NEDD4-like E3 ubiquitin-protein ligase WWP2 Y491H, O00308",0.026 ± 0.072
17,"NEDD4-like E3 ubiquitin-protein ligase WWP2 Y491I, O00308",0.022 ± 0.068
18,"NEDD4-like E3 ubiquitin-protein ligase WWP2 Y491K, O00308",-0.061 ± 0.064
19,"NEDD4-like E3 ubiquitin-protein ligase WWP2 Y491L, O00308",-0.016 ± 0.036
20,"NEDD4-like E3 ubiquitin-protein ligase WWP2 Y491M, O00308",0.018 ± 0.061
21,"NEDD4-like E3 ubiquitin-protein ligase WWP2 Y491N, O00308",-0.208 ± 0.076
22,"NEDD4-like E3 ubiquitin-protein ligase WWP2 Y491P, O00308",-0.003 ± 0.036
